The text below walks through data of PMC11629876.

As a reminder, the Kd is the free concentration of one partner at which half of the binding sites on the other are occupied at equilibrium, for simple one-to-one binding.

Some targets named below: integrin αVβ6 (UniProt P06756); integrin α5β1 (UniProt P08648); integrin αVβ5 (UniProt P06756); integrin α8β1 (UniProt P53708); integrin αVβ3 (UniProt P06756); integrin αVβ1 (UniProt P06756).
What all share (assay): ELISA; dose response: host component coated, recombinant protein added at increasing concentrations, 2 h 37°C; detected with mouse antiserum; KD by non-linear regression, one site-specific binding (GraphPad Prism)
A general note: ELISA stands for enzyme-linked immunosorbent assay.

Assay [1] concerns the target vitronectin (human plasma) (human).
Assay [2] has as its target collagen I (rat tail) (rat) (UniProt P02454).
The target of assay [3] is cellular fibronectin (human foreskin fibroblasts) (human).
Assay [4] has as its target plasminogen (human plasma) (human).
The target of assay [5] is plasma fibronectin (human plasma) (human).

integrin α5β1, sequence (P08648 42-1049, chain 1 of 2): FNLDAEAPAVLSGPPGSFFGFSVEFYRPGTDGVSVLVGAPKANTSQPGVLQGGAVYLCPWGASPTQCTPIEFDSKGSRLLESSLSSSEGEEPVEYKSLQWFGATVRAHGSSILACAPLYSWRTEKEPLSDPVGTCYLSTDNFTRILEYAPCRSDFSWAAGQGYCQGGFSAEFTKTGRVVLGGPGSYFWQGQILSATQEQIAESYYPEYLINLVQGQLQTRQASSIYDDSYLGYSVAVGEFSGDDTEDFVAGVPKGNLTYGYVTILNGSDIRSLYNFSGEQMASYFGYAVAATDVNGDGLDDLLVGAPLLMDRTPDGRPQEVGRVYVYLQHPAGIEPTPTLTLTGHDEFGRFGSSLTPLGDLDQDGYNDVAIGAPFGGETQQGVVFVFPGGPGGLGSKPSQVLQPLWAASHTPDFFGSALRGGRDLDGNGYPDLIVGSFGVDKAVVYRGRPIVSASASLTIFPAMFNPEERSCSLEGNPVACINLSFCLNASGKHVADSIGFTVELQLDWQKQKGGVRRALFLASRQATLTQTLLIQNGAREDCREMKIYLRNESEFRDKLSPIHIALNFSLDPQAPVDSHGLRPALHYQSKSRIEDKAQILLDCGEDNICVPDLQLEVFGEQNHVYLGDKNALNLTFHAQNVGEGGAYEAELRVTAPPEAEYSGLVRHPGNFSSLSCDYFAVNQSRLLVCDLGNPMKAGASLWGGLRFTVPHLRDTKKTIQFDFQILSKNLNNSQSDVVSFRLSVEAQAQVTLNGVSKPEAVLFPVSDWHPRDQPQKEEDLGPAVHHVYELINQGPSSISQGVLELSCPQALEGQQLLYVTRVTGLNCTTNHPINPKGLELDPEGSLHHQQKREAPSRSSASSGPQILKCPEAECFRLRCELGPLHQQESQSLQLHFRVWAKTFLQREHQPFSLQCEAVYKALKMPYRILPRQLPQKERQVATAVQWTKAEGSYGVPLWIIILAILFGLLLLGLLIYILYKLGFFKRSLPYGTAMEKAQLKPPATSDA
integrin α5β1, sequence (P05556 21-728, chain 2 of 2, further chain): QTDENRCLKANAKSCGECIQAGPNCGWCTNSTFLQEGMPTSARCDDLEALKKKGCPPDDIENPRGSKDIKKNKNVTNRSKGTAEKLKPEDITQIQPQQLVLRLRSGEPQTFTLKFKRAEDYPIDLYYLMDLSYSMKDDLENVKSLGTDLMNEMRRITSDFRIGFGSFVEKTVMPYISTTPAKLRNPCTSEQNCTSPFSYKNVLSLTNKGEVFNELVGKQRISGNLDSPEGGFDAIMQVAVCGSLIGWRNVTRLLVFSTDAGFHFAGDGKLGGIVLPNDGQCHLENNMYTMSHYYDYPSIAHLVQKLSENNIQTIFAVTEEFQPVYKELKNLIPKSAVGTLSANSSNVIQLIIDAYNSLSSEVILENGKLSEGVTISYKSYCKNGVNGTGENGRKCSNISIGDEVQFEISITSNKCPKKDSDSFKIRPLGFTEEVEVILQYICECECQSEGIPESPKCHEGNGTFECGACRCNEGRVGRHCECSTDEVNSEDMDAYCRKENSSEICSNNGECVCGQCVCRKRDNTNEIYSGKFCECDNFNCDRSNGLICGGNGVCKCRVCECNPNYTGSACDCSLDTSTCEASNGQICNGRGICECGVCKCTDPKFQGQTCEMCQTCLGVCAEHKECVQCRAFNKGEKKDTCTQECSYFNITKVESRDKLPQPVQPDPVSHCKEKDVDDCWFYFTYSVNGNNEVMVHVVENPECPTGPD
integrin αVβ5, sequence (P06756 31-1048, chain 1 of 2): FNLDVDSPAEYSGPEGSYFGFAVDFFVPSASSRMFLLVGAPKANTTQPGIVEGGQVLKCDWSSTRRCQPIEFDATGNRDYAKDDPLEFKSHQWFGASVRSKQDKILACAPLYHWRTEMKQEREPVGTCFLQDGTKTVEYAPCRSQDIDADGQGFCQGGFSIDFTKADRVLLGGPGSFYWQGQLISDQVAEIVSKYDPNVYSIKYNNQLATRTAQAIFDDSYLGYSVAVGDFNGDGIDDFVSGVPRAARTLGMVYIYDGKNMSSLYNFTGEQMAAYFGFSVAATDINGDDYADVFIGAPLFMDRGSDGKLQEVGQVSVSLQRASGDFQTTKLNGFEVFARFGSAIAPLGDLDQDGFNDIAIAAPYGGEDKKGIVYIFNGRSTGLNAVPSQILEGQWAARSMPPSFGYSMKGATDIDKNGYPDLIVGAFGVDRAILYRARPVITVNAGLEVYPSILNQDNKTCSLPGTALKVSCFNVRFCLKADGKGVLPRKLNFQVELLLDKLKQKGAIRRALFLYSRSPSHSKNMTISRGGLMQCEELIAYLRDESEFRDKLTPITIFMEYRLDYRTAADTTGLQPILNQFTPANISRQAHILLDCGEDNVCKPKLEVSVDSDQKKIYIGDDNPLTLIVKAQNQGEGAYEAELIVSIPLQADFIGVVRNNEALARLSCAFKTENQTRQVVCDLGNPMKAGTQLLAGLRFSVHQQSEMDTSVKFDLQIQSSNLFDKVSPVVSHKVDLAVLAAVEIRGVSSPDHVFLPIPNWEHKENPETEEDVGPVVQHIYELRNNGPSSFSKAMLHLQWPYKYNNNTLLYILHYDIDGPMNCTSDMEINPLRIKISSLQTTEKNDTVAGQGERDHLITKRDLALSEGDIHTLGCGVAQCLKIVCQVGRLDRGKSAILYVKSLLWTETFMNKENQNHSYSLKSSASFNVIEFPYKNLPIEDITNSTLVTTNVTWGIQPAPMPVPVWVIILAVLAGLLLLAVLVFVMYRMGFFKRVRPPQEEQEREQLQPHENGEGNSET
integrin αVβ5, sequence (P18084 24-719, chain 2 of 2, further chain): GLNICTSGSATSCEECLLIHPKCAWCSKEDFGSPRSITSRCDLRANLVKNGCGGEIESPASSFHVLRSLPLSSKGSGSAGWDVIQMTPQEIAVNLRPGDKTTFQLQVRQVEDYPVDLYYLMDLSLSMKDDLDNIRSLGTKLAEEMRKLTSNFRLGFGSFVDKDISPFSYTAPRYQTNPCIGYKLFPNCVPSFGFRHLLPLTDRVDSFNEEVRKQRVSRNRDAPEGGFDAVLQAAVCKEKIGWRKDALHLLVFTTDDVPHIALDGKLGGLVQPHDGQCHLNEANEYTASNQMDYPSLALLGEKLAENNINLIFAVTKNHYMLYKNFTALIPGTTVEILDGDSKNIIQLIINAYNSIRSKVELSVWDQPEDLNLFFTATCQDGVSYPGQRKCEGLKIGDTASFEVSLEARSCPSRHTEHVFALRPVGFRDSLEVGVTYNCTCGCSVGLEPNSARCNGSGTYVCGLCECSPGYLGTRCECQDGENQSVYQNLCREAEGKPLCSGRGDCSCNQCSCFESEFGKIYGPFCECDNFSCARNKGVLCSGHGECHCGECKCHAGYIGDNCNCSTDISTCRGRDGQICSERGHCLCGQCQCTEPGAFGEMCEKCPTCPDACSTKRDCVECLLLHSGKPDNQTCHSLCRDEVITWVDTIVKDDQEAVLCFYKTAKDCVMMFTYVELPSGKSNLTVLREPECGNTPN
integrin αVβ1, sequence (P06756 31-1048, chain 1 of 2): as the sequence (P06756 31-1048, chain 1 of 2) above
integrin αVβ1, sequence (P05556 21-728, chain 2 of 2, further chain): as the sequence (P05556 21-728, chain 2 of 2, further chain) above
integrin αVβ6, sequence (P06756 31-1048, chain 1 of 2): as the sequence (P06756 31-1048, chain 1 of 2) above
integrin αVβ6, sequence (P18564 22-709, chain 2 of 2, further chain): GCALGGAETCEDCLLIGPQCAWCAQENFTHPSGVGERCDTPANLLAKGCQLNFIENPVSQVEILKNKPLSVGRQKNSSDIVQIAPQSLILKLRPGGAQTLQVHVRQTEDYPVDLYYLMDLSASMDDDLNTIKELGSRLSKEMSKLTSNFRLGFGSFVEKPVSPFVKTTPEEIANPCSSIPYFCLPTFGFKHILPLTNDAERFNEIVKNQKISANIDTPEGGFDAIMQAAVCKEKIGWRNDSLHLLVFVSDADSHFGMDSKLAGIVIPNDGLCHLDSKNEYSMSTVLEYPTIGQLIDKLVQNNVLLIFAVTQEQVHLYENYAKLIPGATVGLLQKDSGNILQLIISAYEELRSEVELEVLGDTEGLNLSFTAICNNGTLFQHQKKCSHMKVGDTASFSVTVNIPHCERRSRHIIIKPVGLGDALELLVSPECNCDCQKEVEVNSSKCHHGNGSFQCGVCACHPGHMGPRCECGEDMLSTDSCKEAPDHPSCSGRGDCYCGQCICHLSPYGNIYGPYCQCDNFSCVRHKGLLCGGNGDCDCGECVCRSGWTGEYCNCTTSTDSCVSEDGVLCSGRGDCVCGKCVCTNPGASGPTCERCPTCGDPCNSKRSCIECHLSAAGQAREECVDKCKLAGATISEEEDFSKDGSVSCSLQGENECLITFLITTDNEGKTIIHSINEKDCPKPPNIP
integrin αVβ3, sequence (P06756 31-1048, chain 1 of 2): as the sequence (P06756 31-1048, chain 1 of 2) above
integrin αVβ3, sequence (P05106 27-718, chain 2 of 2, further chain): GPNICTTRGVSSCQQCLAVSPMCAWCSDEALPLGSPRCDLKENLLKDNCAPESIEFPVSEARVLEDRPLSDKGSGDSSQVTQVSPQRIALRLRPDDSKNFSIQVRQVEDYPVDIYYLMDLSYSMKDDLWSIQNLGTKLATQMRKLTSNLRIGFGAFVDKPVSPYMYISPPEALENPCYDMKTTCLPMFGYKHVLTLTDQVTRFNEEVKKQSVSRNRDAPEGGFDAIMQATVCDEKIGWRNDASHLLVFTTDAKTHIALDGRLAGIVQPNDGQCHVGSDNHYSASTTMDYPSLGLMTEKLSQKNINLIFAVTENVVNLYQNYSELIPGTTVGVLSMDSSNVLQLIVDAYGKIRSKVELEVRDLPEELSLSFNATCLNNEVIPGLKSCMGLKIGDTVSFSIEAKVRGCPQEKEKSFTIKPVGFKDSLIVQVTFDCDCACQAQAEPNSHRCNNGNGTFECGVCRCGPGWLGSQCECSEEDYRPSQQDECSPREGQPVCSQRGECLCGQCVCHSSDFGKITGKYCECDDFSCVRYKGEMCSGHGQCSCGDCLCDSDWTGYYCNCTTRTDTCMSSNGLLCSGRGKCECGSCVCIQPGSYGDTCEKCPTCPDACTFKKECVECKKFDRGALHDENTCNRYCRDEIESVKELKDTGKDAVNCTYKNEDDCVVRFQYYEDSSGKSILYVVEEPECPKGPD

In the case of “recombinant LIC11505 (rLIC11505), leucine-rich repeat protein of Leptospira interrogans serovar Copenhageni (natural protein)”, the Kd in assay [1] was found to be 64.8 nM; in the assay with integrin αVβ6 it was 74.9 nM; in assay [2], 80 nM; in the assay with integrin α5β1, 73.4 nM; with integrin αVβ5, 109 nM; in assay [3] it was 20.1 nM. Besides, the Kd with integrin α8β1 was 191 nM; in [4] it was 24.2 nM; in the assay with integrin αVβ3 it was 152 nM; with integrin αVβ1, 134 nM; in [5], 51.1 nM.

With “recombinant LIC11051 (rLIC11051), leucine-rich repeat protein of Leptospira interrogans serovar Copenhageni (natural protein)”, the Kd in [4] came to 42.6 nM.
